Reference: paper PMC10682436

Legend:
[1] = molecular target: OVOL2 C120Y C120Y (Mus musculus) (UniProt Q8CIV7); test: EMSA; conditions: 1 nM probe; 53 ng or 1.7 ug protein; severely impaired; EMSA: 1 nM 5'-biotin DNA probe, room temperature, 30 min (1 h for Fig. 7E), LightShift Chemiluminescent EMSA Kit; specific competitor 4.5 uM where used …
OVOL2 WT (Mus musculus) = OVOL2 WT (Mus musculus) (UniProt Q8CIV7); test: EMSA; conditions: 1 nM probe; 53 ng protein; EMSA: 1 nM 5'-biotin DNA probe, room temperature, 30 min (1 h for Fig. 7E), LightShift Chemiluminescent EMSA Kit; specific competitor 4.5 uM where used …

## AACCGTTACC (double strand) [OVOL2 probe]
[1]
  binding signal (relative to WT = 128): 1
OVOL2 WT (Mus musculus)
  binding signal (fold (WT:C120Y DNA binding ability)): 128
